Data on six molecules can be found in paper PMC9364601.

The target of assay [1] is microtubules polymerized from tubulin purified from goat brain, Taxol-stabilised (goat).
Assay [2] shares this target. Description: single-molecule motility assay (TIRF); Taxol-stabilised MTs adsorbed on the coverslip, purified fluorescent motors in the motility mix; P12 buffer pH 6.8, BSA, 2 mM ATP, room temperature; run time and detachment rate computed from run length and velocity.
The target is the same in assay [3]. This is another data set of the same source.

For the molecule “KIF1A(1-393LZ)-mCit-Flag (from UniProt F1M4A4 1-393) (domain or fragment)”, the Km for microtubules of the MT-stimulated ATPase (Michaelis-Menten fit; 10 nM motor, 1-80 µM MTs, BRB80, room temperature) in assay [1] came out at 7.03 µM. In assay [2], this molecule had a detachment rate from the MT (koff) of 0.23 s⁻¹ and a mean run time (average time spent on the MT) of 4.38 s.
For “KIF16B(1–400)-mCit-Flag (from UniProt Q96L93 1-400) (domain or fragment)” the same measures were 2.43 µM, 0.1 s⁻¹ and 9.83 s.
As for “KIF1A R167C mutant motor, purified (domain or fragment)”, in assay [3], the microtubule affinity from the enzyme kinetics of the MT-stimulated ATPase, decrease compared to wild-type motors (times (decrease against wild type)) was 1.5.
As to “KHC(1–560)-mCit-Flag (from UniProt P56536 1-560) (domain or fragment)”, the Km for microtubules of the MT-stimulated ATPase (Michaelis-Menten fit; 10 nM motor, 1-80 µM MTs, BRB80, room temperature) in assay [1] is 10.2 µM. For the same molecule, in assay [2], the detachment rate from the MT (koff) amounted to 0.72 s⁻¹ and the mean run time (average time spent on the MT) was found to be 1.39 s.

B1: KIF13A(1-411ΔP390)-mCit-Flag (domain or fragment)
chain: MSDTKVKVAVRVRPMNRRELELNTKCVVEMEGNQTVLHPPPSNTKQGERKPPKVFAFDYCFWSMDESNTTKYAGQEVVFKCLGEGILEKAFQGYNACIFAYGQTGSGKSFSMMGHAEQLGLIPRLCCALFKRISLEQNESQTFKVEVSYMEIYNEKVRDLLDPKGSRQSLKVREHKVLGPYVDGLSQLAVTSFEDIESLMSEGNKSRTVAATNMNEESSRSHAVFNIIITQTLYDLQSGNSGEKVSKVSLVDLAGSERVSKTGAAGERLKEGSNINKSLTTLGLVISSLADQAAGKGKSKFVPYRDSVLTWLLKDNLGGNSQTSMIATISPAADNYEETLSTLRYADRAKRIVNHAVVNEDPNAKVIRELREEVEKLREQLSQAEAMKAELKEKLEESEKLIKELTVTWE
Take B1: in assay [1], the Km for microtubules of the MT-stimulated ATPase (Michaelis-Menten fit; 10 nM motor, 1-80 µM MTs, BRB80, room temperature) is 5.16 µM. In assay [2], this molecule gave a detachment rate from the MT (koff) of 0.15 s⁻¹ and a mean run time (average time spent on the MT) of 6.61 s.

B2: KIF13B(1-412ΔP391)-mCit-Flag (domain or fragment)
chain: MGDSKVKVAVRIRPMNRRETDLHTKCVVDVDANKVILNPVNTNLSKGDARGQPKVFAYDHCFWSMDESVKEKYAGQDIVFKCLGENILQNAFDGYNACIFAYGQTGSGKSYTMMGTADQPGLIPRLCSGLFERTQKEENEEQSFKVEVSYMEIYNEKVRDLLDPKGSRQTLKVREHSVLGPYVDGLSKLAVTSYKDIESLMSEGNKSRTVAATNMNEESSRSHAVFKITLTHTLYDVKSGTSGEKVGKLSLVDLAGSERATKTGAAGDRLKEGSNINKSLTTLGLVISALADQSAGKNKNKFVPYRDSVLTWLLKDSLGGNSKTAMVATVSPAADNYDETLSTLRYADRAKHIVNHAVVNEDPNARIIRDLREEVEKLREQLTKAEAMKSELKDRLEESEKLIQEMTVTWE
For B2, the Km for microtubules of the MT-stimulated ATPase (Michaelis-Menten fit; 10 nM motor, 1-80 µM MTs, BRB80, room temperature) in assay [1] was determined as 4.23 µM. In assay [2], this molecule came in with a detachment rate from the MT (koff) of 0.12 s⁻¹ and a mean run time (average time spent on the MT) of 8.06 s.
